Data on three molecules can be found in US20060121462A1, “Receptor and screening methods” (priority 2003, published 2006).

Experiment [1] concerns the target T1, C5L2 (Homo sapiens, UniProt Q9P296).
T1 construct: expressed in transfected cells
Description: Competition binding with 125I-C3a, C5L2-transfected RBL cells. The conditions noted are these: FIG. 1A. Here is the method:
(§1) FIG. 1 illustrates C3a des-Arg^77 and C4a des-Arg^77 bind to RBL cells expressing C5L2. RBL cells transfected with C5L2 were incubated with the stated concentrations of complement fragments for 10 min prior to the addition of 50 pM ^125I-C3a (A) or 50 pM ^125I-C5a (B). Results are the means of n (n shown in Table 1) separate experiments performed in duplicate±S.E.;
(§2) C5L2, C3aR and CD88-transfected RBL cells were produced as described (17). G16 was cloned from human monocytes mRNA and authenticated by sequencing. Human G16 and either C5L2 or CD88 were ligated into the bicistronic expression vector pIRES (Qiagen). Stable transfection of RBL-2H3 cells with pIRES constructs was achieved by electroporation (18). Cells underwent three rounds of fluorescence-activated cell sorting using anti-CD88 antibody (clone S5/1; Serotec) or anti-hemagglutinin peptide antibody (Roćhe Molecular Biochemicals, clone 12CA5), selecting the top 5% of receptor-positive cells in each round.
(§3) Competition binding assays were performed using 50 pM ^125I-C5a or ^125I-C3a (NEN) on adherent C5aR-transfected or C5L2-transfected RBL cells in 96-well microtiter plates (55 000/well) at 4° C. as described previously (22). Competition curves were generated by pre-incubating adherent cells with increasing concentrations of unlabelled complement fragments. […]

Experiment [2] has as its target T2, CD88 (Homo sapiens, UniProt P21730).
T2 construct: expressed in transfected cells
T2 sequence (P21730 1-350): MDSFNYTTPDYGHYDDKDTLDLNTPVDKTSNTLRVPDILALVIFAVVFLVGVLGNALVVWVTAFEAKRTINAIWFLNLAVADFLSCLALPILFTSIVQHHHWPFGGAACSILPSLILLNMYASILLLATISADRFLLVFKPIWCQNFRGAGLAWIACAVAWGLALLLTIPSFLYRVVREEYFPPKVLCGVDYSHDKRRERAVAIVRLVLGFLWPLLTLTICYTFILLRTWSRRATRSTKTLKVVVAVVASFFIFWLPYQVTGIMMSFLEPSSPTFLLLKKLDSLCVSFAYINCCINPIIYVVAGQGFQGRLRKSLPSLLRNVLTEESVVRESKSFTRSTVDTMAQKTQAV
Description: Degranulation of CD88-transfected RBL cells. The conditions noted are these: RBL cells transfected with CD88; data not shown. The class given is cell-based.

Experiment [3] deals with T2, CD88. Nature of the experiment: Radiolabelled ligand competition receptor binding, CD88-transfected RBL cells.
Description: as §2
(§4) Competition binding assays were performed using 50 pM ^125I-C5a or ^125I-C3a (NEN) on adherent C5aR-transfected or C5L2-transfected RBL cells in 96-well microtiter plates (55 000/well) at 4° C. as described previously (22). Competition curves were generated by pre-incubating adherent cells with increasing concentrations of unlabelled complement fragments. The IC50, standard error values and linear regression analyses were obtained by using GraphPad Prism 2.0.

In experiment [4] the target is T1, C5L2. Description: Competition binding with 125I-C5a, C5L2-transfected RBL cells. Here is the method:
as §1, §2, §3

Experiment [5] addresses T3, C3aR (Homo sapiens, UniProt Q16581).
T3 construct: expressed in transfected cells
T3 sequence (Q16581 1-482): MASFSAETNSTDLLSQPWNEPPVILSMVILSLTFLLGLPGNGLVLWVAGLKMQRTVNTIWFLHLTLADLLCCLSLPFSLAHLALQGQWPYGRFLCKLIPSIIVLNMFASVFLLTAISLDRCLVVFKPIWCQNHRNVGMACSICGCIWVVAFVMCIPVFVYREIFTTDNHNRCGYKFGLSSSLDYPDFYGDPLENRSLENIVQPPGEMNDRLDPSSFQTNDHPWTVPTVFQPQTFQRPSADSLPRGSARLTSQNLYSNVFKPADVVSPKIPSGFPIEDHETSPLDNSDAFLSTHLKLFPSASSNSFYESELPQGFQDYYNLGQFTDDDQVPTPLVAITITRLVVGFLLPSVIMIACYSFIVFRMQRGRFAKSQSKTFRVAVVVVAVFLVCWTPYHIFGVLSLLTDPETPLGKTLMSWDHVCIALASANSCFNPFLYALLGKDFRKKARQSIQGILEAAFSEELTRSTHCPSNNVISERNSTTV
Nature of the experiment: Radiolabelled ligand competition receptor binding, C3aR-transfected RBL cells. The conditions noted are these: C3aR expressed in RBL cells; competition binding.
Description: as §2, §4

Experiment [6] deals with T3, C3aR. Description: Degranulation of C3aR-transfected RBL cells. The conditions noted are these: RBL cells transfected with C3aR; data not shown. The class given is cell-based. Here is the method:
Cellular activation was measured as the release of -hexosaminidase from intracellular granules (20). In the enhancement of degranulation assay, cells were treated with 1 μg/ml IgE^DNP (21) overnight, then with chemoattractants or peptides for 10 min prior to stimulation with 100 ng/ml DNP-HSA (Sigma) for 15 minutes. EC50 and standard error values were obtained by iterative curve fitting using GraphPad Prism 2.0.

For experiment [7], the target named is T4, C5L2+Gα16 (Homo sapiens, UniProt Q9P296).
T4 construct: inferred from the sorting antibody; expressed in transfected cells
T4 sequence (Q9P296 whole entry): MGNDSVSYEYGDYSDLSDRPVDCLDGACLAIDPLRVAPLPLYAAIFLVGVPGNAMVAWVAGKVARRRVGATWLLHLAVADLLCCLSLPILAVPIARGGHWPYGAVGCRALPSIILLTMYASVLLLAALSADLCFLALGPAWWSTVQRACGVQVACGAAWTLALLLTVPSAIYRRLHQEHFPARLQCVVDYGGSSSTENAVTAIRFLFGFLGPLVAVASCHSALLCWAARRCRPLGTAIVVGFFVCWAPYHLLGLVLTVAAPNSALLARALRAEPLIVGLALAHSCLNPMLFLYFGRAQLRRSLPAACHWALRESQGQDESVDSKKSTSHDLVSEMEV
The class given is cell-based. The conditions noted are these: C5L2+Gα16 cells after 10 ng/ml PT, FIG. 4D.

In experiment [8] the target is T1, C5L2. Nature of the experiment: Degranulation (β-hexosaminidase) and enhancement of IgE-receptor-mediated degranulation, C5L2-transfected RBL cells. The class given is cell-based. The conditions noted are these: enhancement of IgE-mediated degranulation, FIG. 3A.

T1 sequence (Q9P296 whole entry): as above

B1: C4a des-Arg^77 (protein)
chain: NVNFQKAINEKLGQYASPTAKRCCQDGVTRLPMMRSCEQRAARVQQPDCREPFLSCCQFAESLRKKSRDKGQAGLQ
notes: desarginated metabolite of complement fragment C4a
For orientation: IC50 means the concentration at which inhibition is half-maximal. A low value points to higher potency. In the case of B1, the “competition with ^125I-C3a for C5L2 binding” value in experiment [1] is “can compete strongly”. Further, the stimulation of degranulation entry in experiment [2] and in experiment [6] was “neither C3a des-AXg^77 nor C4a des-Arg^77 can stimulate degranulation” each time. The “competition with ^125I-C5a binding to CD88” value in experiment [3] is given as “cannot compete effectively”. Also, the IC50 was 17 µM in experiment [4] (C5L2 (^125I-C5a) expressed in RBL cells, 50 pM radioligand) and 10 µM in experiment [5]. For the same molecule, the “competition with ^125I-C5a binding to C5L2” value in experiment [4] (FIG. 1B) was “cannot compete effectively”.

B2: C4a: complement fragment of C4 (protein)
chain: NVNFQKAINEKLGQYASPTAKRCCQDGVTRLPMMRSCEQRAARVQQPDCREPFLSCCQFAESLRKKSRDKGQAGLQR
For the molecule B2, the “enhancement of degranulation response to IgE receptor cross-linking” value in experiment [7] is “inactive”.

B3: C5a des-Arg^74 (protein)
chain: TLQKKIEEIAAKYKHSVVKKCCYDGACVNNDETCEQRAARISLGPRCIKAFTECCVVASQLRANISHKDMQLG
modifications: left off: small tags and cut ends
notes: desarginated metabolite of complement fragment C5a
Turning to B3, in experiment [8], the agonist character entry is recorded as “only a partial agonist”.
